From US20070150973A1

Assays:
[1] = target: FKBP×3-VP16 fusion protein (human; Herpes Simplex Virus) (UniProt P62942); experiment: cell-based or functional assay
[2] = target: FKBP×3-p65 fusion protein (human) (UniProt P62942); experiment: cell-based or functional assay

Substance: ZFHD1-FKBP×3 fusion protein (from UniProt P08046 333-390; P14859 378-439; P62942 2-108; P62942 2-108; P62942 2-108)
- FK1012 concentration at peak SEAP activation [1]: 100 nM
- FK1012 concentration at peak SEAP activation [2]: 100 nM
